{"source": "paper PMC7861488", "experiment_in_all_cases": "graphene FET", "key": {"[1]": {"target": "T1, TNF-alpha (UniProt P01375 77-233)", "T1 sequence (P01375 77-233)": "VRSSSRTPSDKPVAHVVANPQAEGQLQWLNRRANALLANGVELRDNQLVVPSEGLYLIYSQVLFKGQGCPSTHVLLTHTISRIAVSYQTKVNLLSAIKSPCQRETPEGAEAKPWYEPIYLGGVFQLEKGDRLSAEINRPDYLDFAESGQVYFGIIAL"}, "[2]": {"target": "T1, TNF-alpha", "remark": "listed apart in the source"}, "[3]": {"target": "T1, TNF-alpha", "remark": "listed apart in the source"}, "[4]": {"target": "T1, TNF-alpha", "remark": "listed apart in the source"}, "[5]": {"target": "T1, TNF-alpha", "remark": "listed apart in the source"}, "[6]": {"target": "T1, TNF-alpha", "remark": "listed apart in the source"}, "[7]": {"target": "T1, TNF-alpha", "remark": "listed apart in the source"}, "[8]": {"target": "T1, TNF-alpha", "remark": "listed apart in the source"}, "[9]": {"target": "T1, TNF-alpha", "remark": "listed apart in the source"}}, "note": "Where two headings read alike, the source gives them in different places.", "data": [{"binder": "TGGTGGATGGCGCAGTCGGCGACAA (ssDNA, 5'-NH2 (coupled to PASE on graphene))", "note": "[VR11]", "values": [{"measurement": "Kd", "setting": "[1]", "result": 0.0151, "unit": "µM"}, {"measurement": "Kd", "setting": "[2]", "result": 0.0146, "unit": "µM"}, {"measurement": "Kd", "setting": "[3]", "result": 0.0143, "unit": "µM"}, {"measurement": "Kd", "setting": "[4]", "result": 0.0156, "unit": "µM"}, {"measurement": "Kd", "setting": "[5]", "result": 0.015, "unit": "µM"}, {"measurement": "Kd", "setting": "[6]", "result": 0.0142, "unit": "µM"}, {"measurement": "Kd", "setting": "[7]", "result": 0.0143, "unit": "µM"}, {"measurement": "Kd", "setting": "[8]", "result": 0.0151, "unit": "µM"}, {"measurement": "Kd", "setting": "[9]", "result": 0.0155, "unit": "µM"}]}]}
